# Experiments:
# [1] = biological target: T1, VHL-L163R-Venus (human, UniProt P40337 1-213, L163R); experiment: co-IP; GFP-Trap_A kit on 1 mg protein from 786-0 cell lines stably expressing VHL-Venus (WT, P138R, L163R) or GFP; Western blot for Elongin B and Elongin C; band ratios Elongin/pVHL normalised to WT set as 1; conditions: partners not purified
# T1 construct: von Hippel-Lindau protein (pVHL), human, patient variant L163R (CTC to CGC) made by site-directed mutagenesis of VHL-WT-Venus-Retro; Variant found in patients with VHL disease (type 2C); also called L163R VHL-Venus; L163R pVHL
# T1 sequence (P40337 whole entry L163R): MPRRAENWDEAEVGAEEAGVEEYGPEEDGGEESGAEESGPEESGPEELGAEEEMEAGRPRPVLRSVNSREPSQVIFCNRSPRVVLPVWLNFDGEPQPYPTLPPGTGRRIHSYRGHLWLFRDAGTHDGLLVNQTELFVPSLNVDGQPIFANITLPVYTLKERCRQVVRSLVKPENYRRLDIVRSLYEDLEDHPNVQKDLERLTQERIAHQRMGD
# [2] = biological target: T2, VHL-P138R-Venus (human, UniProt P40337 1-213, P138R); experiment: as above; conditions: partners not purified
# T2 construct: von Hippel-Lindau protein (pVHL), human, patient variant P138R (CCA to CGA) made by site-directed mutagenesis of VHL-WT-Venus-Retro; Variant found in patients with VHL disease (type 2B); also called P138R VHL-Venus; P138R pVHL
# T2 sequence (P40337 whole entry P138R): as the sequence (P40337 whole entry L163R) above, with P138R, R163L counted along it
binder,measurement,setting,value
"Elongin B (natural protein, human (endogenous in 786-0), UniProt Q15370 1-118, looked up, also called EloB; source: endogenous, 786-0 RCC cell lysate) MDVFLMIRRHKTTIFTDAKESSTVFELKRIVEGILKRPPDEQRLYKDDQLLDDGKTLGECGFTSQTARPQAPATVGLAFRADDTFEALCIEPFSSPPELPDVMKPQDSGSSANEQAVQ","ratio Elongin B/pVHL, normalised to WT pVHL set as 1",[1],0.25
same,"ratio Elongin B/pVHL, normalised to WT pVHL set as 1",[2],~0.6

# Reference: PMC8978939, “VHL-P138R and VHL-L163R Novel Variants: Mechanisms of VHL Pathogenicity Involving HIF-Dependent and HIF-Independent Actions” (Frontiers in Endocrinology, 2022)
